Results taken from IntAct's records for PubMed 23395900.

B1: Structural maintenance of chromosomes protein 3 (Saccharomyces cerevisiae), P47037 (parent)
chain: MYIKRVIIKGFKTYRNETIIDNFSPHQNVIIGSNGSGKSNFFAAIRFVLSDDYSNLKREERQGLIHQGSGGSVMSASVEIVFHDPDHSMILPSGVLSRGDDEVTIRRTVGLKKDDYQLNDRNVTKGDIVRMLETAGFSMNNPYNIVPQGKIVALTNAKDKERLQLLEDVVGAKSFEVKLKASLKKMEETEQKKIQINKEMGELNSKLSEMEQERKELEKYNELERNRKIYQFTLYDRELNEVINQMERLDGDYNNTVYSSEQYIQELDKREDMIDQVSKKLSSIEASLKIKNATDLQQAKLRESEISQKLTNVNVKIKDVQQQIESNEEQRNLDSATLKEIKSIIEQRKQKLSKILPRYQELTKEEAMYKLQLASLQQKQRDLILKKGEYARFKSKDERDTWIHSEIEELKSSIQNLNELESQLQMDRTSLRKQYSAIDEEIEELIDSINGPDTKGQLEDFDSELIHLKQKLSESLDTRKELWRKEQKLQTVLETLLSDVNQNQRNVNETMSRSLANGIINVKEITEKLKISPESVFGTLGELIKVNDKYKTCAEVIGGNSLFHIVVDTEETATLIMNELYRMKGGRVTFIPLNRLSLDSDVKFPSNTTTQIQFTPLIKKIKYEPRFEKAVKHVFGKTIVVKDLGQGLKLAKKHKLNAITLDGDRADKRGVLTGGYLDQHKRTRLESLKNLNESRSQHKKILEELDFVRNELNDIDTKIDQVNGNIRKVSNDRESVLTNIEVYRTSLNTKKNEKLILEESLNAIILKLEKLNTNRTFAQEKLNTFENDLLQEFDSELSKEEKERLESLTKEISAAHNKLNITSDALEGITTTIDSLNAELESKLIPQENDLESKMSEVGDAFIFGLQDELKELQLEKESVEKQHENAVLELGTVQREIESLIAEETNNKKLLEKANNQQRLLLKKLDNFQKSVEKTMIKKTTLVTRREELQQRIREIGLLPEDALVNDFSDITSDQLLQRLNDMNTEISGLKNVNKRAFENFKKFNERRKDLAERASELDESKDSIQDLIVKLKQQKVNAVDSTFQKVSENFEAVFERLVPRGTAKLIIHRKNDNANDHDESIDVDMDAESNESQNGKDSEIMYTGVSISVSFNSKQNEQLHVEQLSGGQKTVCAIALILAIQMVDPASFYLFDEIDAALDKQYRTAVATLLKELSKNAQFICTTFRTDMLQVADKFFRVKYENKISTVIEVNREEAIGFIRGSNKFAEV
partner: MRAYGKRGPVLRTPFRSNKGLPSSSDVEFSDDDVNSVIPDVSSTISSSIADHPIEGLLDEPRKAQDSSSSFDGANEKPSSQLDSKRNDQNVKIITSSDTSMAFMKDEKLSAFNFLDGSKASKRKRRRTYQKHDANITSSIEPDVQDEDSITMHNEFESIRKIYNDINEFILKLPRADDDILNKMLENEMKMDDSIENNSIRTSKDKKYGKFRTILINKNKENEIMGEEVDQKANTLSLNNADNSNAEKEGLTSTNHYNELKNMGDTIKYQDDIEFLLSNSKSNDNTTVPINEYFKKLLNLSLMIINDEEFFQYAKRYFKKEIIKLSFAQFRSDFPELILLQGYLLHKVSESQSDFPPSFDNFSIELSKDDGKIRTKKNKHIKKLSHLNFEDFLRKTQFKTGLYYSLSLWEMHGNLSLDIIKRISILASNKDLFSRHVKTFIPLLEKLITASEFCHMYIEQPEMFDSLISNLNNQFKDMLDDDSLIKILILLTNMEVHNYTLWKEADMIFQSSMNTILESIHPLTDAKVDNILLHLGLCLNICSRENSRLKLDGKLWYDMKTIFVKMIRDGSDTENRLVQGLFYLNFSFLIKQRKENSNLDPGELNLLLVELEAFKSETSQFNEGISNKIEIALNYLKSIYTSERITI
B2: Protein RAD61 (Saccharomyces cerevisiae), Q99359 (parent)
chain: B1 partner
partner: B1 chain

Variants of: B1
Details: with rad61_yeast RAD61, Q99359

Variant	effect of a mutation on the interaction
L163D;L166D	decreasing interaction

Variants of: B1
Details: with rad61_yeast RAD61, Q99359
Remark: another data set of the same source

Variant	effect of a mutation on the interaction
K112N;K113N	decreasing interaction

Variants of: B1
Details: with rad61_yeast RAD61, Q99359
Remark: another data set of the same source

Variant	effect of a mutation on the interaction
L163A;L166A;D168A	decreasing interaction

Variants of: B2
Details: with smc3_yeast SMC3, P47037

Variant	effect of a mutation on the interaction
N493A;L532E;N622A	decreasing interaction

Variants of: B2
Details: with smc3_yeast SMC3, P47037
Remark: another data set of the same source

Variant	effect of a mutation on the interaction
N493A;L577R;N622A	decreasing interaction

Variants of: B2
Details: with smc3_yeast SMC3, P47037
Remark: another data set of the same source

Variant	effect of a mutation on the interaction
N493A;N622A	decreasing interaction

Variants of: B2
Details: with smc3_yeast SMC3, P47037
Remark: another data set of the same source

Variant	effect of a mutation on the interaction
D271A;D272A	decreasing interaction

Variants of: B2
Details: with smc3_yeast SMC3, P47037
Remark: another data set of the same source

Variant	effect of a mutation on the interaction
K376Q;K377Q;K382Q;K383Q	decreasing interaction
